Source: the RNAGym collection of RNA variant scans (doi:10.1093/nar/gkz1192)

B1: CPEB3 Ribozyme (parent)
chain: UAACAGGGGGCCACAGCAGAAGCGUUCACGUCGCAGCCCCUGUCAGAUUCUGGUGAAUCUGCGAAUUCUGCUGUAUAUCUC

Variants of: B1
Test: self-cleavage, relative activity (ratio to wild type); higher = more cleavage; in vitro, sequencing
In short: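 Libraries of CPEB3 self-cleaving ribozyme mutants came from rounds of error-prone PCR and carried barcodes, which DNA sequencing matched to variants. In vitro transcription used T7 RNA polymerase at 37°C for 5 hours, with a further 15 min in DNase I before EDTA stopped the reaction; the ribozymes cleaved during both steps. The RNA was reverse transcribed with template switching and sequenced on Illumina. Relative activity is the cleaved/total read fraction of a variant divided by that of the unmutated ribozyme, averaged over three batches with at least 5 reads.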
In the case of C29G A47G, the self-cleavage is reported as 0.21. A28U U54A gave a self-cleavage of 0.71. With A28U U54C the self-cleavage was 0.78. A28G C34A showed a self-cleavage of 0.32. A28G C34U gave a self-cleavage of 0.32. Variant A28G C34G has a self-cleavage of 0.35. For C29A U69G, the self-cleavage was 0.22. Work on C29A U69C yielded a self-cleavage of 0.18. Variant C29A U31A has a self-cleavage of 0.3. Variant C29A U31C has a self-cleavage of 0.3. Work on A28G U51A yielded a self-cleavage of 0.63. Work on A28G U51G yielded a self-cleavage of 0.45. Work on A28G U51C yielded a self-cleavage of 0.62. C29U A57G gave a self-cleavage of 0.41. C29U A57U showed a self-cleavage of 0.2. Variant A28U A77U has a self-cleavage of 0.85. For A28U A77G, the self-cleavage was 0.8. Work on C29G G33U yielded a self-cleavage of 0.09. C29A G55A gave a self-cleavage of 0.31. In the case of A28G G46C, the self-cleavage is reported as 0.08. A28G G46A showed a self-cleavage of 0.09. Variant A28U A45G has a self-cleavage of 0.47. With A28U A45C the self-cleavage was 0.25. Variant A28U A45U has a self-cleavage of 0.4. In the case of C29U A35G, the self-cleavage is reported as 1.16. Work on C29U A35U yielded a self-cleavage of 0.22. With C29U A35C the self-cleavage was 0.25. With C29U C32U the self-cleavage was 0.51. Work on A28U G33U yielded a self-cleavage of 0.14. Variant A28U G33A has a self-cleavage of 0.2. A28U G33C gave a self-cleavage of 0.26. Work on A28G U80C yielded a self-cleavage of 0.81. With A28G U80A the self-cleavage was 0.72. Variant C29G U60C has a self-cleavage of 0.11. For C29G U60A, the self-cleavage was 0.29. With A28G C68G the self-cleavage was 0.14. A28G C68A gave a self-cleavage of 0.17. In the case of A28G C68U, the self-cleavage is reported as 0.48. For C29G U31C, the self-cleavage was 0.13. Work on A28U A65U yielded a self-cleavage of 0.33. For A28U A65G, the self-cleavage was 0.35. Variant A28G C79U has a self-cleavage of 0.88. C29A G63U gave a self-cleavage of 0.59. C29G U49A gave a self-cleavage of 0.38. For A28U G73U, the self-cleavage was 1.37. In the case of A28U G73A, the self-cleavage is reported as 0.99. Variant C29U A45G has a self-cleavage of 0.42. Variant C29U A45U has a self-cleavage of 0.19. In the case of C29G U78C, the self-cleavage is reported as 0.21. In the case of A28U G42U, the self-cleavage is reported as 0.21. A28U G42C gave a self-cleavage of 0.28. Variant A28U G42A has a self-cleavage of 0.27. For A28U G55A, the self-cleavage was 0.59. In the case of A28U C38U, the self-cleavage is reported as 0.48. C29U C44A gave a self-cleavage of 0.14. For A28U C62U, the self-cleavage was 0.19. A28U C62A showed a self-cleavage of 0.33. In the case of C29A U60C, the self-cleavage is reported as 0.2. Work on C29A U60A yielded a self-cleavage of 0.11. C29A U54C showed a self-cleavage of 0.45. With A28U G36U the self-cleavage was 0.41. For A28U G36C, the self-cleavage was 0.37. Variant A28U G36A has a self-cleavage of 0.08. A28G C62G showed a self-cleavage of 0.21. In the case of A28G C62A, the self-cleavage is reported as 0.23. For A28G C62U, the self-cleavage was 0.27. C29G U43C gave a self-cleavage of 0.3. C29A C62U showed a self-cleavage of 0.15. A28G C32U gave a self-cleavage of 0.24. A28G C32A showed a self-cleavage of 0.13. Variant A28G G30C has a self-cleavage of 0.32. Variant A28G G30A has a self-cleavage of 0.2. For C29A U76G, the self-cleavage was 0.42. C29G A75G gave a self-cleavage of 0.21. Variant C29A G53U has a self-cleavage of 0.42. C29G A45G showed a self-cleavage of 0.29. With C29G U67C the self-cleavage was 0.12. Work on A28G U69A yielded a self-cleavage of 0.29. A28G U69C showed a self-cleavage of 0.25. A28G U69G showed a self-cleavage of 0.48. In the case of A28U C29G, the self-cleavage is reported as 0.1. Work on A28U C29U yielded a self-cleavage of 0.48. Work on A28G U54C yielded a self-cleavage of 0.58.
